Patent US20090215693A1, “METHODS FOR INCREASING HYALURONIC ACID LEVELS AND IMPROVING MOISTURE RETENTION IN TISSUE” (priority 2008, published 2009)

Test system: Fibroblasts
Assay: Hyaluronic acid production by cultured fibroblasts (ELISA of culture medium)
Type: cell-based
Settings: fibroblast culture; even at the lowest concentrations tested
Experimental: Fibroblasts were seeded into individual wells of a 12-well plate in 1.0 ml of Fibroblast Growth Media (FGM) and incubated overnight at 37±2° C. and 5±1% CO2. On the following day the media was removed via aspiration to eliminate non-adherent cells and replaced with 1.0 ml of fresh FGM. Cells were grown until confluent, with a media change every 48 to 72 hours. Upon reaching confluency the cells were treated for 24 hours with DMEM supplemented with 1.5% FBS to eliminate growth factors from the normal culture media. After this 24-hour wash-out period the cells were treated with the indicated test materials (i.e., milk-derived products containing lactoferrin) at the specified concentrations dissolved in FGM with 1.5% FBS. Dibutyrl cAMP (DBcAMP) at 0.1 mM was used as a positive control. Untreated cells (negative control) received FGM with 1.5% FBS. The cells were incubated for 48 hours and at the end of the incubation period cell culture medium was collected and either stored frozen (−75° C.) or assayed immediately. All testing was done in triplicate.
A series of hyaluronic acid standards from 50 ng/ml to 3,200 ng/ml was prepared. […] After incubation, 50 μl of stop solution was added to each well and the absorbance was measured at 405 nm using a plate reader. Hyaluronic acid production was expressed as ng/ml and results are shown in Table 1 and the graph of FIG. 1.

B1: bovine milk-derived lactoferrin: multi-functional protein found in mammalian milk, primarily in the whey fraction (protein, UniProt P24627 20-708, looked up)
Lactotransferrin: APRKNVRWCTISQPEWFKCRRWQWRMKKLGAPSITCVRRAFALECIRAIAEKKADAVTLDGGMVFEAGRDPYKLRPVAAEIYGTKESPQTHYYAVAVVKKGSNFQLDQLQGRKSCHTGLGRSAGWIIPMGILRPYLSWTESLEPLQGAVAKFFSASCVPCIDRQAYPNLCQLCKGEGENQCACSSREPYFGYSGAFKCLQDGAGDVAFVKETTVFENLPEKADRDQYELLCLNNSRAPVDAFKECHLAQVPSHAVVARSVDGKEDLIWKLLSKAQEKFGKNKSRSFQLFGSPPGQRDLLFKDSALGFLRIPSKVDSALYLGSRYLTTLKNLRETAEEVKARYTRVVWCAVGPEEQKKCQQWSQQSGQNVTCATASTTDDCIVLVLKGEADALNLDGGYIYTAGKCGLVPVLAENRKSSKHSSLDCVLRPTEGYLAVAVVKKANEGLTWNSLKDKKSCHTAVDRTAGWNIPMGLIVNQTGSCAFDEFFSQSCAPGADPKSRLCALCAGDDQGLDKCVPNSKEKYYGYTGAFRCLAEDVGDVAFVKNDTVWENTNGESTADWAKNLNREDFRLLCLDGTRKPVTEAQSCHLAVAPNHAVVSRSDRAAHVKQVLLHQQALFGKNGKNCPDKFCLFKSETKNLLFNDNTECLAKLGGRPTYEEYLGTEYVTAIANLKKCSTSPLLEACAFLTR
- hyaluronic acid levels compared with untreated fibroblasts: detectable and significant increase
